Biological target: PsTOE3 (MBP-PsTOE3; PsAP2 in primer table) (Paeonia suffruticosa, UniProt A0A189CP77 1-510)
Assay: EMSA; poly(dI-dC); DIG Gel Shift Kit (Roche) per manufacturer, probe 0.155 uM, poly(dI-dC); protein suspended in 20 mM Tris-HCl, 0.2 M NaCl, 1 mM EDTA, 10 mM beta-mercaptoethanol; pH and temperature not stated
Settings: protein: recombinant, purified on Ni-NTA, label: DIG, blunt

Chain of PsTOE3 (MBP-PsTOE3; PsAP2 in primer table) (A0A189CP77 entry or part of it): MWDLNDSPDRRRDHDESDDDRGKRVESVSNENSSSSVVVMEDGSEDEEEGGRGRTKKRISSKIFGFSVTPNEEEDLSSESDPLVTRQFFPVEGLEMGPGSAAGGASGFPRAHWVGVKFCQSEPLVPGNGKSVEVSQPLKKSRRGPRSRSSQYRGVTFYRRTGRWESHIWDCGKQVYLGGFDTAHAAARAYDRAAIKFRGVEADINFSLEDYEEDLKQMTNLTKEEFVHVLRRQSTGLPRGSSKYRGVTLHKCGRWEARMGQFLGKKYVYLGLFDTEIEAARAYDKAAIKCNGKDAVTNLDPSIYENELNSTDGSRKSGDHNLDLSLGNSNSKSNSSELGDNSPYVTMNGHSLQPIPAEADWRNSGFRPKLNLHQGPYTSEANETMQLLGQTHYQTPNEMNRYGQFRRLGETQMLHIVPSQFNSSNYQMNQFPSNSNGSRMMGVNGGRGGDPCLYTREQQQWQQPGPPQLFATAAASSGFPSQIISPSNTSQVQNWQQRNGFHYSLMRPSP

Binder	binding result (R oligo S209 is printed as the plain complement (3'-5' order) although the header says 5'-3')	binding result (R oligo S211 is printed as the plain complement (3'-5' order) although the header says 5'-3')
C-repeat probe of PsEBB1 (4x ACCGAC) (dsDNA) DNA 1: AACCGACACCGACACCGACACCGAC DNA 2: GTCGGTGTCGGTGTCGGTGTCGGTT	binds	–
mutant C-repeat probe (4x AGCGAC) (dsDNA) DNA 1: AAGCGACAGCGACAGCGACAGCGAC DNA 2: GTCGCTGTCGCTGTCGCTGTCGCTT	–	no binding

Reference: publication PMC10120838, “Dual functions of PsmiR172b-PsTOE3 module in dormancy release and flowering in tree peony (Paeonia suffruticosa)”
